Measurements as given in paper PMC8636100, “Peptibody Based on FGFR1-Binding Peptides From the FGF4 Sequence as a Cancer-Targeting Agent” (Frontiers in Pharmacology, 2021).
No end group written: not given here.

T1: extracellular domain (ECD) of FGFR1 fused to the Fc domain of human IgG1 (UniProt P11362 22-376, HiLyte488 dye (labelled form, used for the membrane overlay of FGFs and the PepSpot assay))
T1 construct: FGFR1 (fibroblast growth factor receptor 1), extracellular domain; Unlabelled in the pull-down (held on Protein A resin) and in SPR (amine-coupled); also called FGFR1-Fc; source: recombinant, produced as described previously (Sokolowska-Wedzina et al., 2014)
T1 sequence (looked up): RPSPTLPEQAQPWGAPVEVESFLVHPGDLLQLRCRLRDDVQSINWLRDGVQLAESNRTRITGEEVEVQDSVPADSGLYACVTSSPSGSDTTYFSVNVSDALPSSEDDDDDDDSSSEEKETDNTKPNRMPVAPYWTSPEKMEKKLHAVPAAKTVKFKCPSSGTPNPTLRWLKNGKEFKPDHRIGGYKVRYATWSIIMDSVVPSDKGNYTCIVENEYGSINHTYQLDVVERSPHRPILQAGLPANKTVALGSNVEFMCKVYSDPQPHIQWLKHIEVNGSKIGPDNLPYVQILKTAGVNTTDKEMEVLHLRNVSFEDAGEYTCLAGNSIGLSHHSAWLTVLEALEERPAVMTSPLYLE


target: T1, extracellular domain (ECD) of FGFR1 …; experiment: SPR; Biacore 3000, 25°C, PBS with 0.05% Tween20, 0.1% BSA, 0.02% NaN3, pH 7.4; FGFR1 ECD-Fc amine-coupled on CM5 at 8800 RU; peptibodies 0.15-4.8 μM or FGF4 75-600 nM injected at 30 μl/min; steady-state affinity analysis for the peptibodies; settings: both partners purified

Row | Binder | Kd [nM]
1 | GIALSKNGKTKKGNRVSPTMKVTHFLPRL (Fc fusion, additional glycine residue as a spacer between the Fc domain and the targeting peptide; peptide F4_1, FGF4 residues 179-206; Peptide fused at the C-terminus of the Fc domain of human IgG1 (vector pLEV113); Labelled with DyLite650 for flow cytometry; not shown: Fc (human IgG1), N-terminal, kept) [peptibodyF4_1] | 2990
2 | GLRRLYCNVGIGFHLQ (Fc fusion, additional glycine residue as a spacer between the Fc domain and the targeting peptide; peptide F4_3, FGF4 residues 83-97; Peptide fused at the C-terminus of the Fc domain of human IgG1 (vector pLEV113); not shown: Fc (human IgG1), N-terminal, kept) [peptibodyF4_3] | 1090
3 | FGF4 (ligand, UniProt P08620 31-206, looked up, FGF4; Denatured by SDS-PAGE and held on PVDF in the overlay; native analyte in SPR; also called recombinant FGF4; fibroblast growth factor 4; source: recombinant, provided by Marta Minkiewicz and Martyna Sochacka from Protein Engineering Group) APTAPNGTLEAELERRWESLVALSLARLPVAAQPKEAAVQSGAGDYLLGIKRLRRLYCNVGIGFHLQALPDGRIGGAHADTRDSLLELSPVERGVVSIFGVASRFFVAMSSKGKLYGSPFFTDECTFKEILLPNNYNAYESYKYPGMFIALSKNGKTKKGNRVSPTMKVTHFLPRL | 65.7

target: T1, extracellular domain (ECD) of FGFR1 …; experiment: peptide or protein array; PepSpot: 15-residue peptides spanning FGF4 covalently bound to a cellulose membrane; blocked with 3% BSA in TBS-T; probed with HiLyte488-labelled FGFR1-Fc or Fc domain (0.1 µg/ml in blocking buffer) overnight at 4°C; settings: both partners purified

Row | Binder | binding result
4 | KNGKTKKGNRVSPTM (also: covalently bound to cellulose-β-alanine membrane, source: synthetic peptide on cellulose membrane (PepSpot, JPT, Berlin)) [PepSpot peptide no. 20 of FGF4] | binds
5 | RVSPTMKVTHFLPRL (also: covalently bound to cellulose-β-alanine membrane, also called peptide 21; source: synthetic peptide on cellulose membrane (PepSpot, JPT, Berlin)) [PepSpot peptide no. 21 of FGF4] | binds
6 | SRFFVAMSSKGKLYG (also: covalently bound to cellulose-β-alanine membrane, also called peptide 15; source: synthetic peptide on cellulose membrane (PepSpot, JPT, Berlin)) [PepSpot peptide no. 15 of FGF4] | binds
7 | KYPGMFIALSKNGKT (also: covalently bound to cellulose-β-alanine membrane, also called peptide 19; source: synthetic peptide on cellulose membrane (PepSpot, JPT, Berlin)) [PepSpot peptide no. 19 of FGF4] | binds
8 | LRRLYCNVGIGFHLQ (also: covalently bound to cellulose-β-alanine membrane, also called peptide F4_3; 4_3; source: synthetic peptide on cellulose membrane (PepSpot, JPT, Berlin)) [PepSpot peptide no. 10 of FGF4] | binds

target: T1, extracellular domain (ECD) of FGFR1 …; experiment: affinity purification with mass spectrometry; chymotryptic peptides of FGF4 incubated 1 h at 4°C with ECD_FGFR1-Fc or, in parallel, Fc domain immobilized on rProtein A Fast Flow resin; washed (0.1 M NaCl, phosphate); eluted with 0.1 M sodium citrate pH 3.5; peptides identified by MS; settings: both partners purified

Row | Binder | binding result
9 | IALSKNGKTKKGNRVSPTMKVTHFLPRL (FGF4 residues 179-206; also called peptide F4_1; 4_1; source: digest of recombinant FGF4 with immobilized bovine chymotrypsin) [chymotryptic peptide of FGF4, region 179–206] | binds
10 | FVAMSSKGKLYGSPF (FGF4 residues 136-150; also called peptide F4_2; 4_2; source: digest of recombinant FGF4 with immobilized bovine chymotrypsin) [chymotryptic peptide of FGF4, region 136–150] | binds
